Where two headings read alike, the source gives them in different places.
Legend:
[1] = molecular target: T1, sNEP (engineered soluble form of NEP) (Oryctolagus cuniculus, UniProt P08049); test: sNEP enzymatic activity assay with (Tyrosyl-[3,5-3H])(D-Ala2)-Leu5-enkephalin as substrate; type: biochemical; settings: inhibition of sNEP/NEP activity
T1 construct: Fusion of a cleavable signal peptide to the ectodomain of neutral endopeptidase; cleavable signal peptide of proopiomelanocortin (replaces cytosolic and transmembrane domains) (N, cleaved yes); made in house; host or cells: LLC-PK1 cells transfected with pRcCMV-sNEP; concentrated culture medium
T1 sequence (P08049 52-750 limits assumed): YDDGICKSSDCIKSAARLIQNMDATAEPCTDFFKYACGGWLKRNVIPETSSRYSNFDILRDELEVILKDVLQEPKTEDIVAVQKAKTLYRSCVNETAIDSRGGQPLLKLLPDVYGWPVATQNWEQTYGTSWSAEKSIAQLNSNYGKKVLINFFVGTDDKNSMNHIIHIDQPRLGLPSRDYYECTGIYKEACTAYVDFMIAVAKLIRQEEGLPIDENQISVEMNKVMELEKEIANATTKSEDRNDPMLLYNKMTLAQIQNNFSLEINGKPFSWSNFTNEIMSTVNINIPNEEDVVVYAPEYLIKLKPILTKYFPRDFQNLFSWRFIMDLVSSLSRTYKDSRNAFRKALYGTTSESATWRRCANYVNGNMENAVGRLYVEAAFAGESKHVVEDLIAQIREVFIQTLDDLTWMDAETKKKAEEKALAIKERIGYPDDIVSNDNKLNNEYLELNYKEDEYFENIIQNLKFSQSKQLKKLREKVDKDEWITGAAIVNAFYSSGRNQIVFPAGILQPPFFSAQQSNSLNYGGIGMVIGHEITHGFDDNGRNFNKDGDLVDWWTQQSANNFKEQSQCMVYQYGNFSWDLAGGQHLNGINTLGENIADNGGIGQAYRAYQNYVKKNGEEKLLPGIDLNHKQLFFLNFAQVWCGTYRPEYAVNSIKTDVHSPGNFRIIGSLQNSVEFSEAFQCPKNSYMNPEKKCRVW

sNEP = molecular target: T2, sNEP (Oryctolagus cuniculus, UniProt P08049); test: HPLC analysis of the hydrolysis of Leu-enkephalin by sNEP; type: biochemical; settings: phosphoramidon 1 μM, Leu5-enkephalin, RP-HPLC
T2 construct: Fusion of a cleavable signal peptide to the ectodomain of neutral endopeptidase; cleavable signal peptide of proopiomelanocortin (replaces cytosolic and transmembrane domains) (N, cleaved yes); made in house; host or cells: LLC-PK1 cells transfected with pRcCMV-sNEP; concentrated culture medium
T2 sequence (P08049 52-750 limits assumed): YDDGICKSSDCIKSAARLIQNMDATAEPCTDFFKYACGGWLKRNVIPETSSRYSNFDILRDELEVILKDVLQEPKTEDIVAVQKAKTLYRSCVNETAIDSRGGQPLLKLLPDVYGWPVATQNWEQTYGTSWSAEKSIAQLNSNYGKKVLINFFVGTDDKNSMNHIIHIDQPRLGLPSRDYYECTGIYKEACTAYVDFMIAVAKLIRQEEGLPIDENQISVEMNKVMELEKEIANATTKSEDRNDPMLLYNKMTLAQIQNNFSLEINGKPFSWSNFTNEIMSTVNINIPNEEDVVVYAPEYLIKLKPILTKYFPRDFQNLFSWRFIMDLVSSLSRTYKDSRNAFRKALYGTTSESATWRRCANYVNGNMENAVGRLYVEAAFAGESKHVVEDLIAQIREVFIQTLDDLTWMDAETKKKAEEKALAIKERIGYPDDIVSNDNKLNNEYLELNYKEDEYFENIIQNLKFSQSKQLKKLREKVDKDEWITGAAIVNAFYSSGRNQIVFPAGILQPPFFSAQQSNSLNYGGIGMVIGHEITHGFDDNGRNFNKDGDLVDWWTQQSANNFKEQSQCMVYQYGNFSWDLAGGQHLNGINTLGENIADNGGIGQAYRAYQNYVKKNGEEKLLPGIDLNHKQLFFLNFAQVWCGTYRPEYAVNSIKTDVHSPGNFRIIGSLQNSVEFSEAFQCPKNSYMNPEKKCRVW
Text: (§1) Hydrolysis products were separated by reversed-phase HPLC as described previously.

NL1 [2] = molecular target: T3, NL1 (Mus musculus, UniProt Q9JLI3); test: HPLC analysis of the hydrolysis of Leu-enkephalin by NL1; type: biochemical; design: The soluble form of NL-1 was assayed for activity; made in house; host or cells: HEK 293 cells (section 2, pCDNA3/RSV); settings: phosphoramidon 1 μM; Leu5-enkephalin; NL1 from medium of HEK/NL1 cells; RP-HPLC
T3 sequence (Q9JLI3 63-765 limits assumed): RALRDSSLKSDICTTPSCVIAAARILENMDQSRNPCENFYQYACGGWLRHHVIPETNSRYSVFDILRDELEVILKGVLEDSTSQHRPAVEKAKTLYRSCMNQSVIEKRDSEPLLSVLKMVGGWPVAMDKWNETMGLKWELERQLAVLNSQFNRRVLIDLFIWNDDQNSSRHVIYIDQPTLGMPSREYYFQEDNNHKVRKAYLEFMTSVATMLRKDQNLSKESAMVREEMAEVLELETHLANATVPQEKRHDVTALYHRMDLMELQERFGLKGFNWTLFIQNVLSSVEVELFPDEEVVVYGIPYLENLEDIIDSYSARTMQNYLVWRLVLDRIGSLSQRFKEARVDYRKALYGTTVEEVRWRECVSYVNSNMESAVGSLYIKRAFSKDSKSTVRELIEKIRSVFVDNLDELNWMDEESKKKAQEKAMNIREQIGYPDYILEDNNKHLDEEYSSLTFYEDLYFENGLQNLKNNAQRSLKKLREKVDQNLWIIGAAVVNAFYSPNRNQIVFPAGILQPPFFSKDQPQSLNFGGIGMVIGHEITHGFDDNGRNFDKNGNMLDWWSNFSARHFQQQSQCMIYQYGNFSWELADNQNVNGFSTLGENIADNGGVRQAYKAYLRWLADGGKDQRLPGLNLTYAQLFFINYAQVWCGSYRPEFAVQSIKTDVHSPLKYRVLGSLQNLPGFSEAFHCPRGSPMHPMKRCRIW
Text: as §1

NL1 [3] = molecular target: T3, NL1; test: NL-1 enzymatic activity assay with (Tyrosyl-[3,5-3H])(D-Ala2)-Leu5-enkephalin as substrate; type: biochemical; design: The soluble form of NL-1 was assayed for activity; made in house; host or cells: CHO cells (section 1, pcDNA3-RSV) and HEK 293 cells (section 2, pCDNA3/RSV); settings: inhibition of NL-1 degradation of the enkephalin substrate
Procedure: Extracts of cellular proteins and culture media were assayed for enzymatic activity. Two tests were performed. The first used [^3H]-Tyr-(D)Ala2-Leu-enkephalin as substrate and was performed according to Lemay et al., (1989). The second used bradykinin as substrate and was performed as described by Raut et al. (1999).
NL1 activity was monitored and compared to sNEP activity using (Tyrosyl-[3,5-^3H])(D-Ala2)-Leu5-enkephalin (50 Ci/mmol) (Research Products International Inc.), as already described (Dion 1995; Devault 1988). Km values were determined by the isotope-dilution method.

[4] = tested on: T4, (Tyrosyl-[3,5-3H])(D-Ala2)-Leu5-enkephalin
T4 sequence: YAGFL

Leu5-enkephalin [5] = tested on: T5, Leu5-enkephalin
T5 sequence: YGGFL

[6] = tested on: NL1 secretion (subtilisin-like convertase processing) in HEK 293 cells; test: Immunoblot of culture media of HEK 293 cells co-expressing NL1 and α1-PDX; type: cell-based, Human; settings: transient co-transfection, increasing amounts of α1-PDX plasmid; related to the amount
Procedure: Human Embryonic Kidney (HEK 293) cells were maintained in DMEM medium containing 10% fetal bovine serum (FBS), and supplemented with penicillin at 60 μg/ml, streptomycin at 100 μg/ml and fongizone at 0.25 μg/ml. Transfections of cells with appropriate plasmids were performed by the calcium/phosphate-DNA co-precipitation method (Chang 1987).
For immunoblot analysis, cells were incubated for 16 h in synthetic DMEM medium containing 2 mM sodium butyrate. Cellular proteins were solubilized as previously described (Dion 1995). Secreted proteins recovered in culture media were concentrated approximately 10 fold by ultrafiltration. Immunoblot analysis were performed using the NEN Renaissance kit with the polyclonal antibody specific to NL1 or the α1-antitrypsin inhibitor antibody (Calbiochem; LaJolla, Calif.) followed by the appropriate horseradish peroxidase-conjugated IgG (Vector Laboratories).
To determine whether a member of the mammalian subtilisine-like convertase family is responsible for NL1 presence in the culture medium of transfected cells, we co-transfected transiently HEK 293 cells with a constant amount of plasmid pCDNA3/RSV/NL1 and increasing amounts of plasmid pCDNA3/CMV/PDX (Benjannet 1997). This latter vector promotes the expression of the α1-antitrypsin Portland variant, α1-PDX, a known inhibitor of subtilisin-like convertases (Anderson 1993).

[7] = molecular target: T6, (Tyrosyl-[3,5-3H])(D-Ala2)-Leu5-enkephalin
T6 chain: YAGFL

Leu5-enkephalin [8] = molecular target: T7, Leu5-enkephalin
T7 chain: YGGFL

Sequence of bradykinin, P01042 (P01042 whole entry, looked up): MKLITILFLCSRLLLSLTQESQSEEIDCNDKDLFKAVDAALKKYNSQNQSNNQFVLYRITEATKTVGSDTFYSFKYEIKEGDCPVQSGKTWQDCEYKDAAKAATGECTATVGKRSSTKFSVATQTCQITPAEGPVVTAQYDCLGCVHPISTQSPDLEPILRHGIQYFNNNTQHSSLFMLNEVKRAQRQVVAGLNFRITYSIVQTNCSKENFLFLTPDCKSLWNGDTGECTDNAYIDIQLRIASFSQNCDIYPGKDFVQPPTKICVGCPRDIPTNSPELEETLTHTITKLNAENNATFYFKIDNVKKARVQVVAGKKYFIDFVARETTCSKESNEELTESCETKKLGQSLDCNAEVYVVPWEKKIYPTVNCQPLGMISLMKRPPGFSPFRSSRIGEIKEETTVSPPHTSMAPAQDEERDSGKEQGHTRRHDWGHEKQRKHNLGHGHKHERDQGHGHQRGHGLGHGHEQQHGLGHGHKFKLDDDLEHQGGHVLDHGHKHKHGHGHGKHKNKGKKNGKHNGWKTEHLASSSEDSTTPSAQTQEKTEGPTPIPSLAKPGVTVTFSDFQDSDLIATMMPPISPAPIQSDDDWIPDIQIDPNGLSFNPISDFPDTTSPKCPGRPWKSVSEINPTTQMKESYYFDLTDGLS

For `CC(C)C[C@H](NP(=O)(O)O[C@@H]1O[C@@H](C)[C@H](O)[C@@H](O)[C@H]1O)C(=O)N[C@@H](Cc1c[nH]c2ccccc12)C(=O)O` [phosphoramidon], the IC50 [1] was 0.5 nM, the “inhibition of enkephalin-degrading activity” value (sNEP) was “completely inhibited” and the “inhibition of enkephalin-degrading activity” value (NL1 [2]) was “completely inhibited”. It also gave an IC50 (NL1 [3]) of 0.9 nM.

For engineered soluble form of NEP (sNEP), the Km [4] was “Km values of 18 µM and 73 µM, respectively” and the “cleavage products by RP-HPLC” value (Leu5-enkephalin [5]) was “both enzymes cleaved the substrate at the Gly3-Phe4 peptide bond”.

`O=C(O)CNC(=O)C(CS)Cc1ccccc1` (centres unmarked) [thiorphan] gave an IC50 (NL1 [3]) of 47 nM.

With “α1-PDX: α1-antitrypsin Portland variant, a known inhibitor of subtilisin-like convertases, expressed from plasmid pCDNA3/CMV/PDX” the “effect on NL1 secretion” value [6] was “strongly inhibited”.

B1: soluble NL-1 (secreted form of mouse NL-1 recovered from culture medium) (protein)
chain: GKQLPLLTSLLHFSWDERTVVKRALRDSSLKSDICTTPSCVIAAARILENMDQSRNPCENFYQYACGGWLRHHVIPETNSRYSVFDILRDELEVILKGVLEDSTSQHRPAVEKAKTLYRSCMNQSVIEKRDSEPLLSVLKMVGGWPVAMDKWNETMGLKWELERQLAVLNSQFNRRVLIDLFIWNDDQNSSRHVIYIDQPTLGMPSREYYFQEDNNHKVRKAYLEFMTSVATMLRKDQNLSKESAMVREEMAEVLELETHLANATVPQEKRHDVTALYHRMDLMELQERFGLKGFNWTLFIQNVLSSVEVELFPDEEVVVYGIPYLENLEDIIDSYSARTMQNYLVWRLVLDRIGSLSQRFKEARVDYRKALYGTTVEEVRWRECVSYVNSNMESAVGSLYIKRAFSKDSKSTVRELIEKIRSVFVDNLDELNWMDEESKKKAQEKAMNIREQIGYPDYILEDNNKHLDEEYSSLTFYEDLYFENGLQNLKNNAQRSLKKLREKVDQNLWIIGAAVVNAFYSPNRNQIVFPAGILQPPFFSKDQPQSLNFGGIGMVIGHEITHGFDDNGRNFDKNGNMLDWWSNFSARHFQQQSQCMIYQYGNFSWELADNQNVNGFSTLGENIADNGGVRQAYKAYLRWLADGGKDQRLPGLNLTYAQLFFINYAQVWCGSYRPEFAVQSIKTDVHSPLKYRVLGSLQNLPGFSEAFHCPRGSPMHPMKRCRIW
For B1, the Km [7] was “Km values of 18 µM and 73 µM, respectively”, the “Km (degradation of the enkephalin substrate)” value [7] was “Km=18±10 µM” and the “enzymatic activity in culture medium” value [7] was “Activity was detected in the culture medium of HEK/NL1 cells but not in that of HEK 293 cells”. For the same molecule, the “cleavage products by RP-HPLC” value (Leu5-enkephalin [8]) was “both enzymes cleaved the substrate at the Gly3-Phe4 peptide bond” and the substrate degradation (bradykinin, P01042) was “Bradykinin is also a substrate for NL-1 (not shown)”.

B2: soluble form of NL-3 (NL-3 ectodomain secreted by means of the NL-1 amino-terminal domain) (protein)
chain: KYLGPVAAGGGACPEGCPERKAFARAARFLAANLDASIDPCQDFYSFACGGWLRRHAIPDDKLTYGTIAAIGEQNEERLRRLLARPGGGPGGAAQRKVRAFFRSCLDMREIERLGPRPMLEVIEDCGGWDLGGAEERPGVAARWDLNRLLYKAQGVYSAAALFSLTVSLDDRNSSRYVIRIDQDGLTLPERTLYLAQDEDSEKVLAAYRVFMERVLSLLGADAVEQKAQEILQVEQQLANITVSEYDDLRRDVSSMYNKVTLGQLQKITPHLRWKWLLDQIFQEDFSEEEEVVLLATDYMQQVSQLIRSTPHRVLHNYLVWRVVVVLSEHLSPPFREALHELAQEMEGSDKPQELARVCLGQANRHFGMALGALFVHEHFSAASKAKVQQLVEDIKYILGQRLEELDWMDAETRAAARAKLQYMMVMVGYPDFLLKPDAVDKEYEFEVHEKTYFKNILNSIRFSIQLSVKKIRQEVDKSTWLLPPQALNAYYLPNKNQMVFPAGILQPTLYDPDFPQSLNYGGIGTIIGHELTHGYDDWGGQYDRSGNLLHWWTEASYSRFLRKAECIVRLYDNFTVYNQRVNGKHTLGENIADMGGLKLAYHAYQKWVREHGPEHPLPRLKYTHDQLFFIAFAQNWCIKRRSQSIYLQVLTDKHAPEHYRVLGSVSQFEEFGRVLHCPKVSPMNPAHKCSVW
B2 was tested, and the enzymatic activity [7] was “No activity was found”.

From US7070974B1, “Metalloproteases of the neprilysin family” (Universite de Montreal, priority 1999, dated 2006)
